Data set [1] is described as follows: Native PAGE gel after doxorubicin encapsulation and purification. The conditions noted are these: ferritin-dox after encapsulation, concentrated on 10 or 100 kDa Amicon. The format is physicochemical. The source says:
Native PAGE gel has been performed in order to check the size of the protein after encapsulation and purification.

In the next data set the test system is siRNA. Description: siRNA association with ferritin (gel). It is filed as binding. As to the method: 1 ml reaction containing 2 mg Ft and 4 ug siRNA in DPBS, pH lowered to values as indicated (2.5, 3.2, 4.4, 5.6 and 6.8, respectively). Samples were incubated 15 min in RT, then NaOH was added to adjust pH to neutral (pH 7). Non-associated free siRNA was removed by 4 centrifugation steps on Amicons with 100 kDa cut-off.

The next data set concerns the target TfR1 (Homo sapiens, UniProt P02786). Description: Surface plasmon resonance binding of ferritin to immobilized his-tagged TFRC receptor. As to the method:
FIG. 2: Sensorgrams corresponding to the interaction between the immobilized his-tagged TFRC receptor and human ferritin. Panel A: mutant Q11E, panel B: wild type. X-axis: time (s). The same amount of receptor was trapped onto the chip surface (see methods section for details). Five different analyte concentrations (0.0625, 0.125, 0.250, 0.5 and 1 mg/ml) were used. For all analyte concentrations measured, the amount of ferritin bound is higher for the Q11E mutant than for wild-type ferritin.
Binding of wild type and Q11E mutant ferritin to TfR1 was analysed by surface plasmon resonance.
In general terms: In SPR one partner is held on a chip, and binding of the other changes the refractive index at the surface.

Data set [2] is described as follows: Native gel after storage in a freezer (-80 degrees Celsius) and thawing. The format is physicochemical. The conditions noted are these: ferritin-dox.
The test system of data set [3] is breast and ovarian cancer cell lines: MDA-MB 231, Skov3 and 4T1. The data set can be described thus: Tumour cell viability after co-culture with macrophages carrying doxorubicin packed ferritin. The conditions noted are these: 72 h co-culture with macrophages, ferritin cages filled with doxorubicin 1 mg/ml. The format is cell-based. As to the method: FIG. 7: Graphs of tumour cell viability after 72 h co-culture with macrophages. The concentration of ferritin cages filled with doxorubicin was the same for each variant of ferritin and was equal to 1 mg/ml.
In vitro experiments have shown that ferritin mutants reveal better cytotoxicity against tumor cells. The doxorubicin packed proteins were inserted into macrophages and then co-cultured with breast and ovarian cancer cell lines: MDA-MB 231, Skov3 and 4T1. The number of viable cells after co-culture was the lowest for the Q11E-Q15E mutant (FIG. 7).

Entries after “also recorded” stand apart in the source; their conditions may differ.

TfR1, sequence (P02786 whole entry, species assumed): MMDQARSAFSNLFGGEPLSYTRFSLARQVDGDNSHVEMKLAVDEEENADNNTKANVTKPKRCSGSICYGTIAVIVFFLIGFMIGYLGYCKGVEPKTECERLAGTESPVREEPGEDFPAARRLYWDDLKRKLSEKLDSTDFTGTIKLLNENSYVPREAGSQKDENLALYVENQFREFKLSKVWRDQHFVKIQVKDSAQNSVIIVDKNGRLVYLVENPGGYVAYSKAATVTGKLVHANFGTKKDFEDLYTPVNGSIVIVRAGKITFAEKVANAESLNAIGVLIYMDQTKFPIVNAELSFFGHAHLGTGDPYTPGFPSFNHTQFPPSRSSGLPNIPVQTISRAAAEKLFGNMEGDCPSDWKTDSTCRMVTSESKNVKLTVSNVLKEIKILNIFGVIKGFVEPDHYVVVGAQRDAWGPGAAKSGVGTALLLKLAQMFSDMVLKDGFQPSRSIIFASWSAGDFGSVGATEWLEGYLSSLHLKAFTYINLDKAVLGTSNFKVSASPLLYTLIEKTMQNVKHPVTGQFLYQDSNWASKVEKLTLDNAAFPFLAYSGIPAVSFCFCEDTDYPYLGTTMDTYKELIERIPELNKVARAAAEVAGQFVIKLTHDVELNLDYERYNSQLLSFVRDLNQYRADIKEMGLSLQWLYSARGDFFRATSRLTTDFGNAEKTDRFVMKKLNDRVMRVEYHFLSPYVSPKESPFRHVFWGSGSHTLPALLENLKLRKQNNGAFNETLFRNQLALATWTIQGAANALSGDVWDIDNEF

On to “Q11E: human H ferritin mutant Q11E (TRBD SEQ ID NO. 05); in examples 3-8 also K54E, K72E, K87Q, K144E, C91S, C103S, C131S (MTTASTSQVRENYHQDSEAA; listed as Homo sapiens)”, for which the “forms on native gel (24-mers versus aggregates)” value in data set [1] is “present as 24-mers (homogeneous cages)”. For the same substance, the “association with siRNA” value with siRNA (incubated in pH 2.4 and 3.2) was “not”. The “association with siRNA” value in the data set with siRNA (incubated in pH range 4.4 to 6.8) is “associated with siRNA”. Further, in the data set with TfR1, the “binding affinity to the CD71 receptor relative to wild type” value was “at least fourfold” and the “rate of release from its complex with CD71 receptor” value is reported as “slow rate of release”. For the same substance, the KD entry with TfR1 (global fit, simple 1:1 binding mode, versus wild type) is listed as “lower KD value”. In addition, the “amount of ferritin bound” value with TfR1 (versus wild-type ferritin, analyte 0.0625-1 mg/ml) was “higher”. In addition, the “stability of cages after storage” value in data set [2] was “still present as 24-mers (homogeneous cages) after storage; also recorded: reduces the presence of aggregates and allows the storage of ferritin cages with doxorubicin in the freezer”.
For “Q11E-Q15E: human H ferritin mutant Q11E Q15E (TRBD SEQ ID NO. 12); in examples 3-8 also K54E, K72E, K87Q, K144E, C91S, C103S (MTTASTSQVRENYHEDSEAA; listed as Homo sapiens)”, the “forms on native gel (24-mers versus aggregates)” value in data set [1] is given as “present as 24-mers (homogeneous cages)”. In data set [2], the “stability of cages after storage” value is listed as “still present as 24-mers (homogeneous cages) after storage”. Further, in data set [3], the “number of viable cells after co-culture” value is listed as “lowest”.

The record behind these values is patent US20230174624A1, “FERRITIN VARIANTS WITH INCREASED STABILITY, COMPLEXATION ABILITY AND TRANSFERRIN RECEPTOR AFFINITY” (CELLIS AG, priority 2020, published 2023).
